From patent publication US20250250357A1

How the values were obtained:
[1] = target: human MSLN-R2-his protein (human) (UniProt Q13421); experiment: ELISA, coated MSLN-R2
[2] = target: human MSLN-R2-his protein (human) (UniProt Q13421); experiment: ELISA on coated antigen, antibody 0.0002 nM
[3] = target: human MSLN-R3-his protein (human) (UniProt Q13421); experiment: ELISA on coated antigen, antibody 0.0002 nM
[4] = target: human MSLN-FL-his protein (human) (UniProt Q13421); experiment: ELISA on coated antigen, antibody 100 nM
[5] = target: human MSLN-R3-3 polypeptide (human); experiment: ELISA on coated antigen, antibody 100 nM
[6] = target: human MSLN-FL-his protein (human) (UniProt Q13421); experiment: ELISA on coated antigen, antibody 0.01 nM
[7] = target: human MSLN-R3-3 polypeptide (human); experiment: ELISA on coated antigen, antibody 0.01 nM
[8] = target: human MSLN-R3-3 polypeptide (human); experiment: ELISA on coated antigen, antibody 0.0001 nM
[9] = target: human MSLN-FL-his protein (human) (UniProt Q13421); experiment: ELISA on coated antigen, no antibody (blank, column 'none')
[10] = target: human MSLN-R3-3 polypeptide (human); experiment: ELISA, coated antigen; no antibody (blank, column 'none')
[11] = target: human MSLN-R3-3 polypeptide (human); experiment: ELISA, coated antigen; antibody 0.0001 nM
[12] = target: human MSLN-R3-3 polypeptide (human); experiment: ELISA on coated antigen, no antibody (column none)
[13] = target: human MSLN-FL-his protein (human) (UniProt Q13421); experiment: ELISA on coated antigen, antibody 0.1 nM
[14] = target: human MSLN-R3-3 polypeptide (human); experiment: ELISA on coated antigen, antibody 0.1 nM
[15] = target: human MSLN-R3-3 polypeptide (human); experiment: ELISA on coated antigen, antibody 0.001 nM
[16] = target: human MSLN-FL-his protein (human) (UniProt Q13421); experiment: ELISA on coated antigen, antibody 1 nM
[17] = target: human MSLN-R3-3 polypeptide (human); experiment: ELISA on coated antigen, antibody 1 nM
[18] = target: human MSLN-R3-3 polypeptide (human); experiment: ELISA, coated antigen; antibody 0.001 nM
[19] = target: human MSLN-R3-3 polypeptide (human); experiment: ELISA, coated MSLN-R3-3
[20] = target: human MSLN-R3-3 polypeptide (human); experiment: ELISA on coated antigen, antibody 10 nM
[21] = target: human MSLN full-length protein (NCBI: AAH09272.1) on stably transfected CHO-K1 or HEK293T cells (human) (UniProt Q13421); experiment: FACS on CHO-K1-hMSLN-2C8 cells; antibody […]
[22] = target: human MSLN full-length protein (NCBI: AAH09272.1) on stably transfected CHO-K1 or HEK293T cells (human) (UniProt Q13421); experiment: FACS on CHO-K1-hMSLN-2C8 cells; antibody 0.032 nM
[23] = target: human MSLN protein, endogenously expressed on Hela and OVCAR3 cells (human) (UniProt Q13421); experiment: FACS on OVCAR3 cells; antibody 0.032 nM
[24] = target: human MSLN protein, endogenously expressed on Hela and OVCAR3 cells (human) (UniProt Q13421); experiment: FACS on OVCAR3 cells; antibody 0.0064 nM
[25] = target: monkey MSLN full-length protein (NCBI: XP_028696439.1) on HEK293T cells (monkey); experiment: FACS on HEK293T-monkey MSLN cells; antibody 0.00128 nM
[26] = target: human MSLN protein, endogenously expressed on Hela and OVCAR3 cells (human) (UniProt Q13421); experiment: FACS on OVCAR3 cells; antibody […]
[27] = target: monkey MSLN full-length protein (NCBI: XP_028696439.1) on HEK293T cells (monkey); experiment: FACS on HEK293T-monkey MSLN cells; antibody […]
[28] = target: human MSLN protein, endogenously expressed on Hela and OVCAR3 cells (human) (UniProt Q13421); experiment: FACS on OVCAR3 cells; antibody 0.00128 nM
[29] = target: human MSLN full-length protein (NCBI: AAH09272.1) on stably transfected CHO-K1 or HEK293T cells (human) (UniProt Q13421); experiment: FACS on CHO-K1-hMSLN-2C8 cells; antibody 0.0064 nM
[30] = target: human MSLN full-length protein (NCBI: AAH09272.1) on stably transfected CHO-K1 or HEK293T cells (human) (UniProt Q13421); experiment: FACS on CHO-K1-hMSLN-2C8 cells; antibody 100 nM
[31] = target: monkey MSLN full-length protein (NCBI: XP_028696439.1) on HEK293T cells (monkey); experiment: FACS on HEK293T-monkey MSLN cells; antibody 0.8 nM
[32] = target: human MSLN protein, endogenously expressed on Hela and OVCAR3 cells (human) (UniProt Q13421); experiment: FACS on OVCAR3 cells; antibody 100 nM
[33] = target: human MSLN full-length protein (NCBI: AAH09272.1) on stably transfected CHO-K1 or HEK293T cells (human) (UniProt Q13421); experiment: FACS on CHO-K1-hMSLN-2C8 cells; antibody 20 nM
[34] = target: monkey MSLN full-length protein (NCBI: XP_028696439.1) on HEK293T cells (monkey); experiment: FACS on HEK293T-monkey MSLN cells; antibody 0.032 nM
[35] = target: human MSLN protein, endogenously expressed on Hela and OVCAR3 cells (human) (UniProt Q13421); experiment: FACS on OVCAR3 cells; antibody 0.8 nM
[36] = target: human MSLN full-length protein (NCBI: AAH09272.1) on stably transfected CHO-K1 or HEK293T cells (human) (UniProt Q13421); experiment: FACS on CHO-K1-hMSLN-2C8 cells; antibody 0.8 nM
[37] = target: human MSLN full-length protein (NCBI: AAH09272.1) on stably transfected CHO-K1 or HEK293T cells (human) (UniProt Q13421); experiment: FACS on CHO-K1-hMSLN-2C8 cells; antibody 0.00128 nM
[38] = target: human MSLN protein, endogenously expressed on Hela and OVCAR3 cells (human) (UniProt Q13421); experiment: FACS on OVCAR3 cells; antibody 20 nM
[39] = target: human MSLN protein, endogenously expressed on Hela and OVCAR3 cells (human) (UniProt Q13421); experiment: FACS on OVCAR3 cells; antibody 4 nM
[40] = target: monkey MSLN full-length protein (NCBI: XP_028696439.1) on HEK293T cells (monkey); experiment: FACS on HEK293T-monkey MSLN cells; antibody 4 nM
[41] = target: human MSLN full-length protein (NCBI: AAH09272.1) on stably transfected CHO-K1 or HEK293T cells (human) (UniProt Q13421); experiment: FACS on CHO-K1-hMSLN-2C8 cells; antibody 4 nM
[42] = target: human MSLN-R3-3 polypeptide (human); experiment: ELISA; antibody 1 nM
[43] = target: monkey MSLN full-length protein (NCBI: XP_028696439.1) on HEK293T cells (monkey); experiment: FACS on HEK293T-monkey MSLN cells; antibody 20 nM
[44] = target: monkey MSLN full-length protein (NCBI: XP_028696439.1) on HEK293T cells (monkey); experiment: FACS on HEK293T-monkey MSLN cells; antibody 100 nM
[45] = target: monkey MSLN full-length protein (NCBI: XP_028696439.1) on HEK293T cells (monkey); experiment: FACS on HEK293T-monkey MSLN cells; antibody 0.0064 nM

human MSLN-FL-his protein (human), sequence (Q13421 other isoform, or with tags, fused parts or gaps): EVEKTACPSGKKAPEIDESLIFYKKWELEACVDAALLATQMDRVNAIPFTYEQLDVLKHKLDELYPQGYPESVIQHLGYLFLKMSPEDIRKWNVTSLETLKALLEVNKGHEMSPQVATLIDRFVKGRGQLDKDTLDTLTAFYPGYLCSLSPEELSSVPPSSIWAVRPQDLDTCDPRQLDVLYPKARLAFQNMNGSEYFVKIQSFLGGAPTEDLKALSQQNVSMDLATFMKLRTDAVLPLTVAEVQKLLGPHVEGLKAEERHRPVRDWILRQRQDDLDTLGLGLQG
human MSLN protein, endogenously expressed on Hela and OVCAR3 cells (human), sequence (Q13421 other isoform, or with tags, fused parts or gaps): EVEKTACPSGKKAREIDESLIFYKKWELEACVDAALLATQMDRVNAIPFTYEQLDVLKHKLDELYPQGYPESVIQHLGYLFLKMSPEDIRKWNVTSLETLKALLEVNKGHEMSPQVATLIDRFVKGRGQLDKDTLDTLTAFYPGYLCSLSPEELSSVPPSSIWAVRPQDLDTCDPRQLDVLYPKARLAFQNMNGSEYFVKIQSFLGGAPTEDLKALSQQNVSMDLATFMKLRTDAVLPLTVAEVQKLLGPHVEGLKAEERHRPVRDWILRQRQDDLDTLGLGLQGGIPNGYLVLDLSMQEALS
human MSLN-R2-his protein (human), sequence (Q13421 other isoform, or with tags, fused parts or gaps): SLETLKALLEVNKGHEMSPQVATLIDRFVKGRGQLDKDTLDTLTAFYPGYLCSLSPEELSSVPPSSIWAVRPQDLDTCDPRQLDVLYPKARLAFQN
human MSLN-R3-his protein (human), sequence (Q13421 495-606): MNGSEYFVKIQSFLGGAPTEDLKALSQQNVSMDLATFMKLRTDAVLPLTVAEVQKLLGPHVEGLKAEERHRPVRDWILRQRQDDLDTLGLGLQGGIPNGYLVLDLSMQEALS

Substance: Tab108 (YP218, scFv-hIgG1 Fc) (Fc fusion)
- OD450 at 0.0001 nM [1]: 0.03 OD450

Substance: anti-hel-hIgG1 (antibody)
- OD450 [2]: 0.52 OD
- OD450 [3]: 0.33 OD
- OD450 [4]: 0.1 OD450
- OD450 [5]: 0.06 OD450
- OD450 [6]: 0.04 OD
- OD450 [7]: 0.05 OD450
- OD450 [8]: 0.05 OD450
- OD450 [9]: 0.04 OD
- OD450 [10]: 0.07 OD450
- OD450 [11]: 0.07 OD450
- OD450 [12]: 0.05 OD450
- OD450 [13]: 0.04 OD
- OD450 [14]: 0.05 OD450
- OD450 [15]: 0.05 OD450
- OD450 [16]: 0.04 OD
- OD450 [17]: 0.05 OD450
- OD450 [18]: 0.08 OD450
- OD450 at 0.0001 nM [19]: 0.07 OD450
- OD450 at 0.001 nM [19]: 0.07 OD450
- OD450 at 0.01 nM [19]: 0.06 OD450
- OD450 at 0.1 nM [19]: 0.06 OD450
- OD450 at 1 nM [19]: 0.06 OD450
- OD450 at 10 nM [19]: 0.07 OD450
- OD450 at none (no antibody) [19]: 0.08 OD450
- OD450 [20]: 0.05 OD450

Substance: hIgG1 (human IgG1 subtype control of Example 1) (antibody)
- FACS fluorescence intensity [21]: 59
- FACS fluorescence intensity [22]: 59
- FACS fluorescence intensity [23]: 75
- FACS fluorescence intensity [24]: 74
- FACS fluorescence intensity [25]: 84
- FACS fluorescence intensity [26]: 74
- FACS fluorescence intensity [27]: 85
- FACS fluorescence intensity [28]: 75
- FACS fluorescence intensity [29]: 65
- FACS fluorescence intensity [30]: 72
- FACS fluorescence intensity [31]: 87
- FACS fluorescence intensity [32]: 93
- FACS fluorescence intensity [33]: 156
- FACS fluorescence intensity [34]: 125
- FACS fluorescence intensity [35]: 76
- FACS fluorescence intensity [36]: 80
- FACS fluorescence intensity [37]: 116
- FACS fluorescence intensity [38]: 78
- FACS fluorescence intensity [39]: 74
- FACS fluorescence intensity [40]: 85
- FACS fluorescence intensity [41]: 110
- OD450 nm [42]: 0.06
- FACS fluorescence intensity [43]: 84
- FACS fluorescence intensity [44]: 127
- FACS fluorescence intensity [45]: 85
